This is an account of results in article PMC6385319.

For this assay, the target named is T1, mCherry-APPL1-delta-PTB.
T1 sequence (Q9UKG1 whole entry, species assumed, looked up): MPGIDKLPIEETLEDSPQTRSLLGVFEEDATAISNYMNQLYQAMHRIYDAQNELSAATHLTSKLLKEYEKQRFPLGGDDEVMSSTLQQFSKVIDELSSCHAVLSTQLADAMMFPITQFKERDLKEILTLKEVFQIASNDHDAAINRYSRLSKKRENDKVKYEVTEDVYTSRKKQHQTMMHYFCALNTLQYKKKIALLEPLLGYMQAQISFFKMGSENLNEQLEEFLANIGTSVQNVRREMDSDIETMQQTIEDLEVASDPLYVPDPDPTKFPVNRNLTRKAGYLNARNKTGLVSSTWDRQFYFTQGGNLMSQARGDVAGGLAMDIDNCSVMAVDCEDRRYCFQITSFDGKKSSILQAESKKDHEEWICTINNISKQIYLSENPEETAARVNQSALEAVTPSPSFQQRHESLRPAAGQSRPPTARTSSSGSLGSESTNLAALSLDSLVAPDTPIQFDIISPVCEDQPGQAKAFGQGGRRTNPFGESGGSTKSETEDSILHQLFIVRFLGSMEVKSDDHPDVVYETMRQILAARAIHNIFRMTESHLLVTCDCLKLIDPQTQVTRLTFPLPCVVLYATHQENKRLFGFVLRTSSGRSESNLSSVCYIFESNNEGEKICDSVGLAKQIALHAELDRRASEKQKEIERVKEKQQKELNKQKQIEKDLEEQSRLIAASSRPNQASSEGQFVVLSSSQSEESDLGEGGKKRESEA
As to the kind of experiment: FRET or BRET; FRET/FLIM in live primary hippocampal neurons at DIV 7, 37 °C; GFP-Akt1 donor, mCherry fusion acceptor; donor lifetime measured in cell body and growth cone; untreated.

Some results are limits rather than exact numbers.

Chain of GFP-Akt1 (P31749 whole entry, the tested form may be a part): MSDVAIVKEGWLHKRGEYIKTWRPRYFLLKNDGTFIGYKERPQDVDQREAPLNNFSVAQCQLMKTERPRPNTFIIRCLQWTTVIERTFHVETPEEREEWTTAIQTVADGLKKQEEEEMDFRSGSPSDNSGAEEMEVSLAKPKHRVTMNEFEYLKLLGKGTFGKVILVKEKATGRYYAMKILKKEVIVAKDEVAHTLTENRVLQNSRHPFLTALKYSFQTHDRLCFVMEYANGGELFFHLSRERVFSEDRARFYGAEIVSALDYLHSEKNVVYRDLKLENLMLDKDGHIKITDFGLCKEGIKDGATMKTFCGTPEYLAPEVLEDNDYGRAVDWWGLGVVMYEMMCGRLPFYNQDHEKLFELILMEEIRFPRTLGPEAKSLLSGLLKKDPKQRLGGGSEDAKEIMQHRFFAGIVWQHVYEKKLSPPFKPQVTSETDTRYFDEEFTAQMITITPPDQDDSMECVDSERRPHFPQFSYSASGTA

In turn, GFP-Akt1 (from UniProt P31749 1-480) showed an FRET efficiency (growth cone) of less than 1%.
